In this test the target is mCherry-TurboID-CD9. The test can be described thus: proximity labelling + proximity ligation.

On to “Gabrb3 (from UniProt P63080 26-473) (natural protein)”, for which the PLA puncta (Streptavidin–Gabrb3), APP-TB mice turned out to be 1530 puncta and the PLA puncta (Streptavidin–Gabrb3), WT-TB mice is 1500 puncta.
On to “Ncam1 (from UniProt P13595 20-1115) (natural protein)”, for which the PLA puncta (Streptavidin–Ncam1), APP-TB mice is 1790 puncta and the PLA puncta (Streptavidin–Ncam1), WT-TB mice turned out to be 1260 puncta.

B1: Gad1 (enzyme)
chain: MASSTPSPATSSNAGADPNTTNLRPTTYDTWCGVAHGCTRKLGLKICGFLQRTNSLEEKSRLVSAFRERQSSKNLLSCENSDQGARFRRTETDFSNLFAQDLLPAKNGEEQTAQFLLEVVDILLNYVRKTFDRSTKVLDFHHPHQLLEGMEGFNLELSDHPESLEQILVDCRDTLKYGVRTGHPRFFNQLSTGLDIIGLAGEWLTSTANTNMFTYEIAPVFVLMEQITLKKMREIVGWSNKDGDGIFSPGGAISNMYSIMAARYKYFPEVKTKGMAAVPKLVLFTSEHSHYSIKKAGAALGFGTDNVILIKCNERGKIIPADLEAKILDAKQKGYVPLYVNATAGTTVYGAFDPIQEIADICEKYNLWLHVDAAWGGGLLMSRKHRHKLSGIERANSVTWNPHKMMGVLLQCSAILVKEKGILQGCNQMCAGYLFQPDKQYDVSYDTGDKAIQCGRHVDIFKFWLMWKAKGTVGFENQINKCLELADYLYAKIKNREEFEMVFDGEPEHTNVCFWYIPQSLRGVPDSPERREKLHRVAPKIKALMMESGTTMVGYQPQGDKANFFRMVISNPAATQSDIDFLIEEIERLGQDL
On to B1, for which the PLA puncta (Streptavidin–Gad1), APP-TB mice came out at 2120 puncta.

(Values after doi:10.1101/2025.10.22.684016.)
